Test results as given in patent publication US12144869B2, “Anti-ROR1 antibody conjugates, compositions comprising anti ROR1 antibody conjugates, and methods of making and using anti-ROR1 antibody conjugates” (Sutro Biopharma, Inc., priority 2022, dated 2024).
Changes are numbered by the printed parent chain. Read-outs that look alike come from different tables or passages of the source.

B1: SRP2196-A10 (antibody, V domains shown)
VH: EVQLVESGGGLVQPGGSLRLSCAASGFNITGYYIHWVRQAPGKGLEWVGYISPNSGATHYADSVKGRFTISADISKNTAYLQMNSLRAEDTAVHYCARDSRRYVRSWDYWGQGTLVTVSS
VL: QAVVTQESALTTSPGETVTLTCRSSTGAVTTSNYANWVQEKPDHLFTGLIGGTNKRAPGVPARFSGSLIGDKAALTITGAQTEDEAIYFCALWYSNLWVFGGGTKLTVL
B2: SRP2196-C02 (antibody, V domains shown)
VH: B1 VH with Y33H, Y50F, A57W, H59Y, Y60S, I74T, H94Y, S106P, W107F
VL: B1 VL
B3: SRP2196-A03 (antibody, V domains shown)
VH: B1 VH with G31Q, Y33H, A57S, Y60E, I74T, H94Y, S106G
VL: B1 VL
B4: SRP2196-C01 (antibody, V domains shown)
VH: B1 VH with T30I, Y50S, S52T, N54L, H59S, Y60K, I74T, H94Y, V104I
VL: B1 VL
B5: SRP2196-A11 (antibody, V domains shown)
VH: B1 VH with Y50Q, A57T, H59Y, Y60D, I74T, H94Y, S106G
VL: B1 VL
B6: SRP2196-B02 (antibody, V domains shown)
VH: B1 VH with G31Q, A57Q, H59Y, Y60D, I74T, H94Y
VL: B1 VL
B7: SRP2196-C03 (antibody, V domains shown)
VH: B1 VH with Y50Q, A57S, H59Y, Y60S, I74T, N84S, H94Y, R105L
VL: B1 VL
B8: SRP2196-C04 (antibody, V domains shown)
VH: B1 VH with Y50F, S52A, N54L, A57S, Y60N, I74T, H94Y, D99E, R105N, S106P
VL: B1 VL
B9: SRP2196-B10 (antibody, V domains shown)
VH: B1 VH with Y50S, S52T, N54L, H59S, Y60K, I74T, H94Y, V104I
VL: B1 VL
B10: SRP2196-B08 (antibody, V domains shown)
VH: B1 VH with Y50Q, A57Y, H59Y, Y60L, I74T, H94Y, S106G
VL: B1 VL
B11: SRP2196-B04 (antibody, V domains shown)
VH: B1 VH with G31E, H59Y, Y60Q, I74T, H94Y, S106G
VL: B1 VL
B12: SRP2196-B06 (antibody, V domains shown)
VH: B1 VH with Y50Q, A57S, H59Y, Y60S, I74T, H94Y, R105L
VL: B1 VL

How the values were obtained:
ROR1 negative MCF7 cells = experiment: In vitro cell killing of ROR1 ADCs on MCF7; assay type: cell-based; conditions: Table 13, ROR1 negative MCF7, 120 hours; for EC50: read-out: MCF-7 EC50
Experimental: (§1) Anti-ROR1 antibody was conjugated to different linker-warheads described herein at different DARs and the cell killing activity of the ADCs were evaluated on ROR1 positive Ntera-2 cell and ROR1 negative MCF7 cells.
(§2) Ntera-2 or MCF7 cell at 625 cells/25 μL were seeded in a 384-well flat bottom white polystyrene plate one day before the assay start. ADCs were formulated at 2× starting concentration. Filter sterilized samples were serial diluted (1:3) under sterile conditions and added onto cells in triplicates. Plates were cultured at 37° C. in a CO2 incubator for 120 hours. For cell viability measurement, 30 microliter of Cell Titer-Glo® reagent (Promega Corp, Madison, WI) was added into each well, and plates processed as per product instructions. Relative luminescence was measured on an ENVISION® plate reader (Perkin-Elmer; Waltham, MA). Relative luminescence readings were converted to % viability using untreated cells as controls. Data was fitted with non-linear regression analysis, using log (inhibitor) vs. response, variable slope, 4-parameter fit equation using GraphPad Prism.
To evaluate if the cell killing activity of anti-ROR1 ADCs is dependent on antibody binding to ROR1 expressed on cell surface, the same linker-warheads (LP3, LP4) were conjugated to an anti-GFP antibody and the cell killing of the anti-ROR1 and anti-GFP ADCs were evaluated in cell killing assays on ROR1 positive Ntera-2 cell and ROR1 negative MCF7 cells.

[1] = tested on: ROR1 positive Ntera-2 cell; experiment: In vitro cell killing of ROR1 ADCs on Ntera-2; assay type: cell-based; conditions: Table 13, ROR1 positive Ntera-2, 120 hours; for EC50: read-out: NTERA-2 EC50
Experimental: as §1, §2
To evaluate if the cell killing activity of anti-ROR1 ADCs is dependent on antibody binding to ROR1 expressed on cell surface, the same linker-warheads (LP3, LP4) were conjugated to an anti-GFP antibody and the cell killing of the anti-ROR1 and anti-GFP ADCs were evaluated in cell killing assays on ROR1 positive Ntera-2 cell and ROR1 negative MCF7 cells. […]

human ROR1-Fz = target: T1, human ROR1-Fz (Homo sapiens, UniProt Q01973); experiment: Biacore off-rate and kinetic analysis, ROR1-Fz; assay type: binding; conditions: Table 11; SP34 light chain
T1 construct: Frizzled (Fz, residues 165-305); His6 (C); purchased Acro Biosystems; host or cells: HEK293
T1 sequence (Q01973 165-305): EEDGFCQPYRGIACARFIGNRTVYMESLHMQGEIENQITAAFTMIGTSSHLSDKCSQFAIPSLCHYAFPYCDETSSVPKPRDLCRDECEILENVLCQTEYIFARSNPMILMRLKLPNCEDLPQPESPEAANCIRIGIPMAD
Experimental: Anti-Fc polyclonal antibodies were immobilized onto a CMS chip (GE Life Sciences) using amine coupling chemistry (from Amine Coupling Kit, GE Life Sciences). The immobilization steps were carried out at a flow rate of 25 μL/min in 1×HBS-EP+buffer (GE Life Sciences; 10× Stock diluted before use). The sensor surfaces were activated for 7 min with a mixture of NHS (0.05 M) and EDC (0.2 M). The Anti-Fc antibodies were injected over all 4 flow cells at a concentration of 25 ug/ml in 10 mM sodium acetate, pH 4.5, for 7 min. Ethanolamine (1 M, pH 8.5) was injected for 7 min to block any remaining activated groups. An average of 12,000 response units (RU) of capture antibody was immobilized on each flow cell.
Off-rate and kinetic binding experiments were performed at 25° C. using 1×HBS-EP+buffer. Test and control antibodies were injected over the anti-Fc surface at concentrations of 5-10 μg/mL for 12 seconds at a flow rate of 10 μL/min on flow cells 2, 3 and 4, followed by a buffer wash for 30 seconds at the same flow rate. Kinetic characterization of antibody samples was carried out with a range of antigen concentrations from 1-100 nM and 1 injection of 0 nM antigen (for example, 100, 50, 25, 6.25, 1.56 and 0 nM). After capturing ligand (antibody) on the anti-Fc surface, the analyte (hROR1, Fz or Kr domains, Acro Biosystems, Delaware) was bound for 180 seconds, followed by a 600 second dissociation phase at a flow rate of 50 μL/min. Between each ligand capture and analyte binding cycle, regeneration was carried out using 2 injections of 10 mM Glycine pH 2.0 for 30 seconds at 30 μL/min, followed by a 30 second buffer wash step.
The data was fit with the Biacore T200 Evaluation software, using a 1-1 Langmuir binding model. KD (affinity, nM) was determined as a ratio of the kinetic rate constants calculated from the fits of the association and dissociation phases.
For anti-CD3-LC-containing IgGs that had detectable ROR1-binding in ELISA (1944-A07 and 1987-C05 variants), those antibodies were further tested for binding by surface plasmon resonance (SPR). Binding kinetics were assessed to the ROR1-frizzled domain (hROR1-Fz) or the ROR1-extracellular domain (hROR1) for 1944-A07 and 1987-C05 variants, respectively. Briefly, anti-ROR1 antibodies were captured via anti-human Fc polyclonal antibodies immobilized to a CM5 chip, and ROR1 recombinant proteins were flowed across the surface to assess binding kinetics. hROR1 or hROR1-Fz domain (Acro Biosystems, Delaware) binding was tested at 100, 50, 25, 6.25, 1.5625 nM. The data was fit with the Biacore™ T200 Evaluation software, using a 1-1 Langmuir binding model. KD (affinity, nM) was determined as a ratio of the kinetic rate constants calculated from the fits of the association and dissociation phases.

[2] = Differential scanning fluorimetry (protein thermal shift; TM1/TM2); assay type: physicochemical; conditions: Table 11; melting temperature of the Fab domain
Experimental: A protein thermal shift assay was carried out by mixing the protein to be assayed with an environmentally sensitive dye (SYPRO Orange, Life Technologies Cat #S-6650) in a phosphate buffered solution (PBS), and monitoring the fluorescence of the mixture in real time as it underwent controlled thermal denaturation. Protein solutions between 0.2-2 mg/mL were mixed at a 1-1 volumetric ratio with a 1-500 PBS-diluted solution of SYPRO Orange (SYPRO Orange stock dye is 5000× in DMSO). 10 μL aliquots of the protein-dye mixture were dispensed in quadruplicate in a 384-well microplate (Bio-Rad Cat #MSP-3852), and the plate was sealed with an optically clear sealing film (Bio-Rad Cat #MSB-1001) and placed in a 384-well plate real-time thermocycler (Bio-Rad CFX384 Real Time System). The protein-dye mixture was heated from […], at increments of 0.1° C. per cycle (˜1.5° C. per minute), allowing 3 seconds of equilibration at each temperature before taking a fluorescence measurement. At the end of the experiment, the transition melting temperatures (TM1 and TM2) were determined using the Bio-Rad CFX manager software. TM1 represents the melting temperature of the Fc domain. TM2 represents the melting temperature of the Fab domain.
For the thermal stability of an antibody, the first melting peak (Tm1) coincides with the unfolding of the CH2 domain (FC stability), while the second melting peak (Tm2) occurs upon unfolding of the Fab domain.

Molecule | Biacore human ROR1-Fz ka (human ROR1-Fz) | Biacore human ROR1-Fz kd (human ROR1-Fz) | TM2 (° C.) [2] | further results
CC[C@@]1(O)C(=O)OCc2c1cc1n(c2=O)Cc2c-1nc1cc(F)c(C)c3c1c2[C@@H](NC(=O)CO)CC3 [Dxd] | – | – | – | MCF-7 Span (ROR1 negative MCF7 cells): 63%; EC50 (ROR1 negative MCF7 cells): 0.83 nM; NTERA-2 Span [1]: 99%; EC50 [1]: 0.26 nM
CC[C@@]1(O)C(=O)OCc2c1cc1n(c2=O)Cc2c-1nc1cc(F)c(C)c3c1c2[C@@H](NC(=O)CN)CC3 [Gly-Exatecan] | – | – | – | EC50 (ROR1 negative MCF7 cells; Homo sapiens): 0.169 nM; MCF-7 Span (ROR1 negative MCF7 cells): 73%; EC50 ([1]; NTERA2): 6.72 nM; NTERA-2 Span [1]: 98%
B1 | 172000 M⁻¹ s⁻¹ | 0.000479 s⁻¹ | 68 °C | –
B2 | 119000 M⁻¹ s⁻¹ | 0.00036 s⁻¹ | 67 °C | –
B3 | 169000 M⁻¹ s⁻¹ | 0.000275 s⁻¹ | 70 °C | –
B4 | 125000 M⁻¹ s⁻¹ | 0.000457 s⁻¹ | 70 °C | –
B5 | 191000 M⁻¹ s⁻¹ | 0.000792 s⁻¹ | 73 °C | –
B6 | 163000 M⁻¹ s⁻¹ | 0.000227 s⁻¹ | 69 °C | –
B7 | 143000 M⁻¹ s⁻¹ | 0.000461 s⁻¹ | 69 °C | –
B8 | 131000 M⁻¹ s⁻¹ | 0.000704 s⁻¹ | 70 °C | –
B9 | 128000 M⁻¹ s⁻¹ | 0.000334 s⁻¹ | 70 °C | –
B10 | 156000 M⁻¹ s⁻¹ | 0.000488 s⁻¹ | 75 °C | –
B11 | 127000 M⁻¹ s⁻¹ | 0.000352 s⁻¹ | 72 °C | –
B12 | 142000 M⁻¹ s⁻¹ | 0.000423 s⁻¹ | 70 °C | –
